The text below walks through data of patent US20260231968A1, “AN ECO-FRIENDLY, SUSTAINABLE FOOD PRESERVATIVE” (priority 2023, published 2026).

The test system of one data set is Candida albicans. The experiment in a line: Dose-response growth assay in 96 well plates, C. albicans in RPMI-MOPS (also zinc and pH variation). The data set is classed as cell-based. On the procedure:
C. albicans were seeded on 10 cm plates of YAG-agarose for 1-2 days in a humidified incubator at 30° C. C. albicans colonies were used for 48 hours after their appearance before disposal.
RPMI-MOPS (RPMI Powder, 165 mM MOPS, and Pen/Strep solution (x100)) was inoculated with either 50,000 spores/ml of A. flavus, or 1 colony/10 ml of C. albicans. The inoculated RPMI-MOPS was poured into a Nunclone™ coated 96-well plate (100 μl per well), with the different treatments and controls. The 96-well plate was then incubated in a shaker/incubator plate-reader at 30° C. where the absorbance (600 nm) was monitored and measured every 10 minutes.
In Example 4, several ZnCl2 concentrations were added to 1 μM of His-psoriasin.
In Example 5, RPMI-MOPS was titrated to the different pH levels using 1M NaOH solution (RMPI-MOPS, initial pH ~4).
In order to evaluate the ability of recombinant His-psoriasin to inhibit the growth of Candida albicans, a single colony/10 ml was incubated in a RPMI-MOPS medium with variable concentrations of psoriasin added to each well. Fungi growth was monitored using an absorbance plate reader every 10 minutes at 600 nm. No apparent growth was measured in psoriasin concentrations higher than 300 nM for C. albicans (FIG. 2).
In order to test the effect of zinc ions on the ability of psoriasin to inhibit fungal growth, Candida albicans was incubated in a RPMI-MOPS medium in the presence of 1 μM psoriasin with variable concentrations of ZnCl2.
Candida albicans was incubated in a RPMI-MOPS medium in the presence of 10 μM His-psoriasin at variable pHs. […] Accordingly, effective anti-fungal activity of His-psoriasin can be obtained also at pH levels that are lower than pH=8.

A further data set relates to C. albicans. The experiment in a line: Fungal growth in natural apple and beetroot juice. It is filed as cell-based, Candida albicans. The conditions noted are these: pH=7, 40 μM and 400 μM. On the procedure:
Natural beetroot and apple juice without preservatives, was diluted ×0.5 with PBS×1 to avoid high background absorbance. The juice was titrated to pH=7.4 with 1M NaOH, inoculated with C. albicans (1 colony/10 ml), treated with 40 μM and 400 μM His-psoriasin, and monitored with the same measuring program as the RPMI-MOPS experiments. In order to evaluate the effect of His-psoriasin on fungal growth in juice, natural apple and beetroot juices were inoculated without any preservatives with C. albicans. The samples were titrated to pH=7 and treated with 40 μM and 400 μM of recombinant His-psoriasin. The samples were placed in a 96 well-plate and absorbance at 600 nm was monitored vs. time.

The test system of data set [1] is microbial load of plant-based ground meat (soy protein). The experiment in a line: Microbial load of plant-based ground meat (soy protein) with psoriasin and/or nisin. It is filed as cell-based. To be noted: 0.65% w/w His-psoriasin; 1.5 mg nisin; 5 g soy protein in 7.5 ml PBS. On the procedure:
The ability of psoriasin to inhibit bacterial and fungal growth, with and without nisin was evaluated. Commercial plant-based ground meat (soy protein) was divided into 4 groups, each containing 5 grams of soy protein. The sample designated as “non-treated” contained 5 g of soy protein in 7.5 ml of PBS×1. The sample designated as “psoriasin” contained 5 g of soy protein in 7.5 ml of PBS×1 with 0.65% w/w of His-psoriasin. The sample designated as “nisin” contained 5 g of soy protein in 7.5 ml PBS×1 with 1.5 mg of nisin. The combined treatment group (“psoriasin+nisin”) contained 5 g of soy protein with both his-psoriasin and nisin at the same concentrations. The samples were incubated in […], and the microbial load was evaluated by seeding the different test groups on LB-agarose plates containing no antibiotics or on YAG-agarose plates with the antibiotics.

For data set [2], the system named is microbial sample isolated from soy protein. Description: Growth of microbes isolated from soy protein in LB or RPMI. The data set is classed as cell-based. On the procedure: Psoriasin was applied to a microbial sample isolated from soy protein that was incubated in RPMI or LB medium, with no addition of external antibiotics. Liquid RPMI 1640 (5 ml) medium w/o Pen/strep antibiotics were inoculated with a colony that grew on an LB agarose plate from Example 8. The inoculated medium was incubated in a 37° C. shaker incubator overnight. Only the medium without antibiotics became turbid as a result of the endogenic bacterial growth. The isolated bacteria were used in dose-response experiments in RPMI 1640 and LB. Microbial growth was monitored in a 96-well plate by reading the absorbance at 600 nm every 10 minutes while adjusting the temperature to 37° C. In the rich LB medium, psoriasin was effective at a concentration of 50 μM (FIG. 9A). In RPMI, psoriasin was effective in concentrations below 1 μM (FIG. 9B).

Data set [3] concerns microbial load of hummus salad. Description: Shelf life of hummus salad at pH 4.8. The data set is classed as cell-based. The conditions noted are these: pH 4.8, stored at 6° C, psoriasin 0.2%. As for the experimental part:
The ability of psoriasin to extend the shelf life of a hummus salad preparation was examined. A commercially-available preparation that is acidified at pH 4.8 and to which 0.2% potassium sorbate was added in order to ensure food safety was compared to a hummus salad at the same pH with and without the addition of psoriasin at the same concentration. No antibiotics were added and there was no addition of mold, yeast or bacteria to the preparation.
Samples were stored at 6° C. and total CFU counts were performed on days 0, 12, 26, and 62 by plating on LB and PDA agar petri dishes. Photos (i.e., visual inspection) were taken every 7 days. As is evident from FIG. 14A, psoriasin extended the shelf life of the hummus salad at pH 4.8 by 2 months.

Data set [4] has as its system microbial load of hummus spread. Description: Shelf life of canned hummus spread at natural pH 6.5. The data set is classed as cell-based. The conditions noted are these: pH 6.5, stored at 6° C in an open container. On the procedure:
In a further related example, the ability of psoriasin to extend the shelf life of a canned hummus spread preparation was compared with that of nisin, a commonly used preservative at pH 6.5, the natural pH of the preparation. As described above, no antibiotics were added and there was no addition of mold, yeast or bacteria to the hummus spread. The hummus spread was split into 3 groups: i) untreated, ii) nisin-treated, and iii) psoriasin-treated. The hummus spread was stored at 6° C. in an open container. Total CFU count was determined by plating on LB and PDA agar petri dishes.

A further data set has as its system E. coli. Description: Thermal stability of psoriasin, E. coli standard growth assay. It is filed as cell-based. On the procedure: In another study, psoriasin stock (36 mg/mL in 1×PBS) was exposed to temperatures of 70° C., 80° C., and 90° C. for periods of 15, 30, and 60 minutes. After thermal exposure, the activity of the protein was assessed against E. coli in a standard growth assay with 0.4%, 0.2% or 0.1% psoriasin.

B1: psoriasin: Recombinant human psoriasin (S100a7) containing a histidine tag, amino acid sequence SEQ ID NO: 11, expression vector pET-28a (protein, listed as Homo sapiens)
chain: MSNTQAERSIIGMIDMFHKYTRRDDKIEKPSLLTMMKENFPNFLSACDKKGTNYLADVFEKKDKNEDKKIDFSEFLSLLGDIATDYHKQSHGAAPCSGGSQ
As to B1, the “C. albicans proliferation at variable pHs” value in the data set with Candida albicans (10 μM His-psoriasin, RPMI-MOPS) is on record as “prevent C. albicans proliferation at all the tested pH levels”. In addition, the “psoriasin concentration above which no apparent growth was measured” value with Candida albicans (C. albicans single colony/10 ml, RPMI-MOPS, absorbance 600 nm) is given as “higher than 300 nM”. In addition, the “ZnCl2 concentration above which the fungi retained their full ability to grow” value in the data set with Candida albicans (in the presence of 1 μM psoriasin) is recorded as “above 1.2 μM”. The “fungal proliferation in juice” value in the data set on C. albicans is “not able to proliferate”. Further, in data set [1], the “total microbial count on LB-agarose plates containing no antibiotics” value is on record as “inhibited microbial growth”. The “total yeast/mold count on YAG plates with antibiotics” value in data set [1] is given as “inhibited fungal/yeast growth”. In addition, the “effective concentration against isolated microbes” value in data set [2] (RPMI 1640, 37° C) was “below 1 μM”; in data set [2] (rich LB medium, 37° C), 50 µM. Besides, the “extension of shelf life of hummus salad” value in data set [3] was 2 months. In data set [4], the “time without microbial growth in hummus spread” value is listed as “over 32 days”. In addition, the “antimicrobial activity against E. coli after thermal exposure” value is on record as “retained full antimicrobial activity” in the data set on E. coli (70° C for 15, 30 and 60 minutes, all concentrations); “inhibited the growth of E. coli, though to a lesser extent” in the data set on E. coli (80° C and 90° C for 1 hour). Besides, in the data set on E. coli (70° C, 80° C, 90° C for 15 minutes, 0.4%, 0.2% or 0.1% psoriasin), the “ability to inhibit E. coli after thermal exposure” value is recorded as “maintained its ability to inhibit the growth of E. coli”.
